Numbering of substitutions follows the chain as printed.
Conditions: Hordeum vulgare, Thermal, DSC, glycine-HCl 10 mM, reversible: yes, whole UniProt chain shown; for heat capacity change of unfolding / unfolding free energy: 25 °C

B1: wild type, Q40059 (protein)
chain: MSSMEKKPEGVNIGAGDRQNQKTEWPELVGKSVEEAKKVILQDKPAAQIIVLPVGTIVTMEYRIDRVRLFVDRLDNIAQVPRVG
pH 2.2
  heat capacity change of unfolding: 0.79 kcal/mol/K
  unfolding free energy: 1.94 kcal/mol
pH 2.5
  heat capacity change of unfolding: 0.79 kcal/mol/K
  unfolding free energy: 2.79 kcal/mol
pH 2.8
  heat capacity change of unfolding: 0.79 kcal/mol/K
  unfolding free energy: 3.73 kcal/mol
pH 3.2
  heat capacity change of unfolding: 0.79 kcal/mol/K
  unfolding free energy: 5.2 kcal/mol
pH 3.5
  heat capacity change of unfolding: 0.79 kcal/mol/K
  unfolding free energy: 6.48 kcal/mol

B2: Subtilisin-chymotrypsin inhibitor-2A wild type, P01053 (protein)
chain: B1 chain with M4V, I13T, Q19H, Q21L, A46E, R73K
pH 2.2
  Tm: 41.6 °C
  unfolding enthalpy (calorimetric): 43.5 kcal/mol
  unfolding enthalpy (van 't Hoff): 42.3 kcal/mol
pH 2.5
  Tm: 47.2 °C
  unfolding enthalpy (calorimetric): 49.2 kcal/mol
  unfolding enthalpy (van 't Hoff): 45.5 kcal/mol
pH 2.8
  Tm: 55.2 °C
  unfolding enthalpy (calorimetric): 52.8 kcal/mol
  unfolding enthalpy (van 't Hoff): 51.1 kcal/mol
pH 3.2
  Tm: 64 °C
  unfolding enthalpy (calorimetric): 61 kcal/mol
  unfolding enthalpy (van 't Hoff): 60.8 kcal/mol
pH 3.5
  Tm: 71 °C
  unfolding enthalpy (calorimetric): 67.5 kcal/mol
  unfolding enthalpy (van 't Hoff): 68.8 kcal/mol

From FireProtDB (doi:10.1021/bi00107a010)
